Assay results: the supplement of paper PMC7877785
± gives the uncertainty stated by the source.

Test: self-splicing fitness, log relative to wild type (ln ratio); higher = more splicing; Tetrahymena group I intron in knt gene, E. coli kanamycin selection, DiMSum; sequences stand for … in CUCUCU…GGAGGGAAAAGUUAUCAGGCAUGCACCUGGUAGCUAGUCUUUAAACCAAUAGAUUGCAUCGGUUUAAAAGGCAAGACCGUCAAAUUGCGGGAAAGGGGUCAACAGCCGUUCAGUACCAAGUCUCAGGGGAAACUUUGAGAUGGCCUUGCAAAGGGUAUGGUAAUAAGCUGACGGACAUGGUCCUAACCACGCAGCCAAGUCCUAAGUCAACAGAUCUUCUGUUGAUAUGGAUGCAGUUCACAGACUAAAUGUCGGUCGGGGAAGAUGUAUUCUUCUCAUAAGAUAUAGUCGGACCUCUCCUUAAUGGGAGCUAGCGGAUGAAGUGAUGCAACACUGGAGCCGCUGGGAACUAAUUUGUAUGCGAAAGUAUAUUGAUUAGUUUUGGAGUACUCGUGGUCG
Method in brief: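 Pooled colonies went to amplicon sequencing on an Illumina HiSeq 2500 after six replicate transformations. The plates were LB agar with 100 μg/mL carbenicillin, 50 μM IPTG and 0.2% rhamnose, with or without 25 μg/mL kanamycin, incubated overnight at 37°C or 30°C. The E. coli BL21(DE3) library had all eight P1ex-region intron nucleotides randomised, the intron placed in the knt kanamycin-resistance gene on pET-22b(+). DiMSum fitness is the error-weighted combination of replicate fold changes, kanamycin against none, normalised to wild type.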

Sequence | self-splicing fitness (ln) (30 °C) | self-splicing fitness (ln) (37 °C)
UUUCAGCAAUAUUACGUUUG | -1.91 ± 0.086 | -1.12 ± 0.1
UUUGAGCAAUAUUACGAGAG | -2.2 ± 0.32 | –
UUUGAGCAAUAUUACGAGGU | -4.2 ± 0.46 | -3.66 ± 0.46
UUUGAGCAAUAUUACGAGUU | – | -1.87 ± 0.42
UUUGAGCAAUAUUACGAUCA | -2.12 ± 0.24 | -1.28 ± 0.25
UUUGAGCAAUAUUACGCAAG | -3.09 ± 0.34 | -1.51 ± 0.23
UUUGAGCAAUAUUACGCGUC | -2.03 ± 0.22 | -2.49 ± 0.26
UUUGAGCAAUAUUACGCGUG | -2.33 ± 0.14 | -0.742 ± 0.12
UUUGAGCAAUAUUACGGAAG | – | -1.41 ± 0.43
UUUGAGCAAUAUUACGGAUA | -3.12 ± 0.43 | -2.36 ± 0.45
UUUGAGCAAUAUUACGGCAC | -2.87 ± 0.41 | -2.56 ± 0.31
UUUGAGCAAUAUUACGGGCG | -3.15 ± 0.42 | -2.16 ± 0.43
UUUGAGCAAUAUUACGGGCU | -2.89 ± 0.34 | -2.86 ± 0.41
UUUGAGCAAUAUUACGGGUC | – | -3.77 ± 0.46
UUUGAGCAAUAUUACGUACC | -2.34 ± 0.44 | -2.3 ± 0.42
UUUGAGCAAUAUUACGUAUG | -1.73 ± 0.16 | -2.59 ± 0.24
UUUGAGCAAUAUUACGUCUG | -2.41 ± 0.24 | -0.733 ± 0.21
UUUGAGCAAUAUUACGUGGG | -2.17 ± 0.47 | -1.39 ± 0.3

Sequence | self-splicing fitness (ln) (30 °C) | self-splicing fitness (ln) (37 °C)
UUUGAGCAAUAUUACGUGGU | -4.12 ± 0.33 | -2.74 ± 0.38
UUUGAGCAAUAUUACGUUCC | -3.99 ± 0.39 | –
UUUGAGCAAUAUUACGUUCG | -4.2 ± 0.42 | -1.18 ± 0.19
UUUGAGCAAUAUUACGUUGA | – | -1.92 ± 0.33
UUUGAGCAAUAUUACGUUGU | -2.68 ± 0.21 | -2.46 ± 0.28
UUUUAGCAAUAUUACGACUC | -2.56 ± 0.46 | –
UUUUAGCAAUAUUACGAGGU | -2.89 ± 0.43 | –
UUUUAGCAAUAUUACGCAGG | -1.33 ± 0.12 | -1.03 ± 0.16
UUUUAGCAAUAUUACGCGAA | -1.57 ± 0.28 | -1.08 ± 0.39
UUUUAGCAAUAUUACGCGCC | -1.71 ± 0.29 | -0.726 ± 0.28
UUUUAGCAAUAUUACGCGUA | -1.57 ± 0.13 | -1.22 ± 0.12
UUUUAGCAAUAUUACGGCCC | – | -1.14 ± 0.42
UUUUAGCAAUAUUACGUAAC | -3.07 ± 0.31 | -1.57 ± 0.38
UUUUAGCAAUAUUACGUCUU | -2.43 ± 0.18 | -1.33 ± 0.19
UUUUAGCAAUAUUACGUGAC | -3.41 ± 0.28 | -0.031 ± 0.22
UUUUAGCAAUAUUACGUGGG | -1.79 ± 0.2 | -2.27 ± 0.27
UUUUAGCAAUAUUACGUUUA | -1.94 ± 0.22 | -1.05 ± 0.16
